Laboratory results reported in publication PMC10397247.
Each block holds one binder with its values, some of them ahead of it.

Tests used:
4H953-AA = target: T1, 4H953-AA; test: two-hybrid library CCmax; conditions: mean of both orientations;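 note: natural log of median RNA to DNA barcode read ratio; higher means stronger binding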
T1 chain: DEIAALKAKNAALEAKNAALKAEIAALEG

4H967-AA = target: T2, 4H967-AA; test: two-hybrid library CCmax; conditions: mean of both orientations;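 note: natural log of median RNA to DNA barcode read ratio; higher means stronger binding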
T2 chain: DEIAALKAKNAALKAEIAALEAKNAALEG

4H918-AA = target: T3, 4H918-AA; test: two-hybrid library CCmax;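 note: natural log of median RNA to DNA barcode read ratio; higher means stronger binding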
T3 chain: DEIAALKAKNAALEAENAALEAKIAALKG

4H380-AA = target: T4, 4H380-AA; test: two-hybrid library CCmax; conditions: mean of both orientations;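 note: natural log of median RNA to DNA barcode read ratio; higher means stronger binding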
T4 chain: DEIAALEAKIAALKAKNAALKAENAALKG

4H3974-AA = target: T5, 4H3974-AA; test: two-hybrid library CCmax; conditions: mean of both orientations;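 note: natural log of median RNA to DNA barcode read ratio; higher means stronger binding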
T5 chain: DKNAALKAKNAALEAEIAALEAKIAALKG

4H446-AA = target: T6, 4H446-AA; test: two-hybrid library CCmax; conditions: mean of both orientations;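 note: natural log of median RNA to DNA barcode read ratio; higher means stronger binding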
T6 chain: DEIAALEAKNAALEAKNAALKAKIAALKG

4H3414-AA = target: T7, 4H3414-AA; test: two-hybrid library CCmax; conditions: mean of both orientations
T7 chain: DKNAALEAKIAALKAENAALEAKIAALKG

4H3049-AA = target: T8, 4H3049-AA; test: two-hybrid library CCmax; conditions: mean of both orientations
T8 chain: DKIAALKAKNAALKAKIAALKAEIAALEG

4H324-AA = target: T9, 4H324-AA; test: two-hybrid library CCmax; conditions: mean of both orientations
T9 chain: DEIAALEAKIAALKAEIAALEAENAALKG

4H3129-AA = target: T10, 4H3129-AA; test: two-hybrid library CCmax; conditions: mean of both orientations
T10 chain: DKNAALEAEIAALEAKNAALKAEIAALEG

4H3619-AA = target: T11, 4H3619-AA; test: two-hybrid library CCmax; conditions: mean of both orientations
T11 chain: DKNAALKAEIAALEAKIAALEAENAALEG

4H2947-AA = target: T12, 4H2947-AA; test: two-hybrid library CCmax; conditions: mean of both orientations
T12 chain: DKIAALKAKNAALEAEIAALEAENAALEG

4H3449-AA = target: T13, 4H3449-AA; test: two-hybrid library CCmax; conditions: mean of both orientations
T13 chain: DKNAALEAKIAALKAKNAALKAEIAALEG

4H3969-AA = target: T14, 4H3969-AA; test: two-hybrid library CCmax; conditions: mean of both orientations
T14 chain: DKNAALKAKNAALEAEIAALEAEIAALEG

4H432-AA = target: T15, 4H432-AA; test: two-hybrid library CCmax; conditions: mean of both orientations
T15 chain: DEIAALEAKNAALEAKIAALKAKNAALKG

4H483-AA = target: T16, 4H483-AA; test: two-hybrid library CCmax; conditions: mean of both orientations
T16 chain: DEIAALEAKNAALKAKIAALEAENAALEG

4H341-AA = target: T17, 4H341-AA; test: two-hybrid library CCmax; conditions: mean of both orientations
T17 chain: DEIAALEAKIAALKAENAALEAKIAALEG

4H3629-AA = target: T18, 4H3629-AA; test: two-hybrid library CCmax; conditions: mean of both orientations
T18 chain: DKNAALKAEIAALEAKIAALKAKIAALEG

4H2961-AA = target: T19, 4H2961-AA; test: two-hybrid library CCmax; conditions: mean of both orientations
T19 chain: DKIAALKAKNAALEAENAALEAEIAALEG

4H3094-AA = target: T20, 4H3094-AA; test: two-hybrid library CCmax; conditions: mean of both orientations
T20 chain: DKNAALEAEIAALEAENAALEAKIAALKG

4H3782-AA = target: T21, 4H3782-AA; test: two-hybrid library CCmax; conditions: mean of both orientations
T21 chain: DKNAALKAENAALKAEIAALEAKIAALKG

4H3939-AA = target: T22, 4H3939-AA; test: two-hybrid library CCmax; conditions: mean of both orientations
T22 chain: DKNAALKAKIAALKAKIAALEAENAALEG

4H63-AA = target: T23, 4H63-AA; test: two-hybrid library CCmax; conditions: mean of both orientations
T23 chain: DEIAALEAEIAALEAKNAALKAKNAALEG

4H2903-AA = target: T24, 4H2903-AA; test: two-hybrid library CCmax
T24 chain: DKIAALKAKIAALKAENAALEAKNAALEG

4H3777-AA = target: T25, 4H3777-AA; test: two-hybrid library CCmax; conditions: mean of both orientations
T25 chain: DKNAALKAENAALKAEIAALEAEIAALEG

4H464-AA = target: T26, 4H464-AA; test: two-hybrid library CCmax; conditions: mean of both orientations
T26 chain: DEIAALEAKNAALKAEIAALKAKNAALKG

4H3915-AA = target: T27, 4H3915-AA; test: two-hybrid library CCmax; conditions: mean of both orientations
T27 chain: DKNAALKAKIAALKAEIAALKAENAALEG

4H3595-AA = target: T28, 4H3595-AA; test: two-hybrid library CCmax; conditions: mean of both orientations
T28 chain: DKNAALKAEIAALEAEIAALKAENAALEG

O9-bA = target: T29, O9-bA; test: two-hybrid library CCNG1
T29 chain: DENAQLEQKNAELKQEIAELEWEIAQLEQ

O8-bA = target: T30, O8-bA; test: two-hybrid library CCNG1
T30 chain: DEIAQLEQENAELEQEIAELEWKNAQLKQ

interaction score (4H953-AA): 2.09
interaction score (4H967-AA): -0.889
interaction score (4H918-AA): 1.24
B1: 4H918-AA (peptide)
chain: DEIAALKAKNAALEAENAALEAKIAALKG

interaction score (4H380-AA): 0.283
interaction score (4H3974-AA): -0.747
interaction score (4H446-AA): -0.722
interaction score (4H3414-AA): -1.72
interaction score (4H3049-AA): -1.81
interaction score (4H324-AA): -0.202
interaction score (4H3129-AA): -0.64
interaction score (4H3619-AA): -0.237
interaction score (4H2947-AA): -1.62
interaction score (4H3449-AA): -1.8
interaction score (4H3969-AA): -0.566
interaction score (4H432-AA): -1.38
interaction score (4H483-AA): -1.33
interaction score (4H341-AA): -0.593
interaction score (4H3629-AA): -0.902
interaction score (4H2961-AA): -1.88
interaction score (4H3094-AA): -0.448
interaction score (4H3782-AA): -1.31
interaction score (4H3939-AA): -1.78
interaction score (4H63-AA): 2.45
interaction score (4H2903-AA): -1.28
interaction score (4H3777-AA): -1.22
interaction score (4H464-AA): -1.44
interaction score (4H3915-AA): -1.48
interaction score (4H3595-AA): -0.655
B2: 4H2903-AA (peptide)
chain: DKIAALKAKIAALKAENAALEAKNAALEG

interaction score (O9-bA): 0.317
interaction score (O8-bA): -0.832
B3: O8-bA (peptide)
chain: DEIAQLEQENAELEQEIAELEWKNAQLKQ
